Common to all, as to test: HPLC glucosylation assay, nonlinear fit (GraphPad Prism)
Common to all, as to assay type: biochemical, Marchantia polymorpha

Substrate in data set [1]: O=C(CCc1ccc(O)cc1)c1c(O)cc(O)cc1O
Particulars: UDP-glucose as donor, Tris-HCl, optimal pH (7.0-7.5), 30 °C, 12 min. From the text:
(§1) HPLC glucosylation assay, nonlinear fit (GraphPad Prism) on MpUGT737B1

Substrate in data set [2]: Oc1ccc(CCc2cccc(O)c2)cc1
Particulars: UDP-glucose as donor, Tris-HCl, optimal pH (7.0-7.5), 30 °C, 12 min.
Excerpt: as §1

Substrate in data set [3]: Oc1ccc(CCc2cc(O)cc(O)c2)cc1
To be noted: UDP-glucose as donor, Tris-HCl, optimal pH (7.0-7.5), 30 °C, 12 min.
Excerpt: as §1

Substrate in data set [4]: Oc1ccc(CCc2cccc(O)c2)cc1
To be noted: UDP-glucose as donor; Tris-HCl, optimal pH (7.0), optimal temperature (25-30 °C), 12 min. From the text:
HPLC glucosylation assay, nonlinear fit (GraphPad Prism) on MpUGT741A1

B1: MpUGT737B1 (Marchantia polymorpha) (protein)
chain: MELTNGTTRRAHVLMVCVPFPGHVAPFTQLLYHLSCHENLKVTVMGHKARNAEMIKLYEKGEFKGLDIHFETIFADPPVYPSDPKFPIRAALCADQMFVEFEPIRRRLVAEKDNVGAPTSIICDMFLWFTKDAADEMGVPWYPFFSTSQWFGYCAYIGDELARRNFHPHHSEEKDQRIDITGLEFAYVHDIPSEVLEFPEFYAKVTDRSFRATGILCNTAYELEGSAGTLMATKALVQRSGKKNLKGEEAQIIPVGPIAQIPGFGVQYSLRDQPYECLKWLNAHTEKSVLYIAFGSLGNIVPEVFHELALGLEAGGVPFLWALKLTPAQKEELLPEGFLERIQSSGMGFIESGWAPQTQILMHPAVGGFLSHCGWNSTLESLCAGVPMITWPLSADQPMNARFLVDVKKVAVTVLSGSADESVVTHDDISKAIKRLFGDEEGKQIAKNSLELKKLLASLVAEGGSTYKALRYFIQDLVMV
notes: full-length ORF (1443 bp, 480 residues) in pET32a(+), N-terminal Trx-S-His tag, E. coli BL21(DE3), purified
By Km is commonly meant the substrate concentration at which the rate is half of its maximum. As usually defined, the Vmax is the top rate of the reaction or transport when substrate is in excess. The term kcat denotes the maximal rate divided by the concentration of active sites. One may read the kcat/Km as the turnover number divided by the Michaelis constant. Consider B1, for which, in data set [1], the Km turned out to be 50.2 ± 10.6 µM, the Vmax was found to be 0.07 µmol/min/mg, the kcat was found to be 0.062 ± 0.005 s⁻¹ and the kcat/Km was 1240 M⁻¹ s⁻¹. For the same protein, in data set [2], the Km turned out to be 39.3 ± 7.5 µM, the Vmax came to 0.0373 µmol/min/mg, the kcat amounted to 0.033 ± 0.002 s⁻¹ and the kcat/Km came out at 846 M⁻¹ s⁻¹. Besides, in data set [3], the Km was 45.6 ± 9.7 µM, the Vmax is 0.1 µmol/min/mg, the kcat is 0.089 ± 0.006 s⁻¹ and the catalytic efficiency (kcat/Km) was found to be 1960 M⁻¹ s⁻¹.

B2: MpUGT741A1 (Marchantia polymorpha) (protein)
chain: MGSHVERPPRALLFPVVASGHWGPFLQLILQLATKKLNFTLLADRGRCDELKAYQAKGAFATLDVEFLEVYTDPSTLSLRKDLVPAMWTNLESFISNGEFDPSRYTCMISDMFLYFCQDLADKWGIPNYFYVTCPTYFGLVLLHGEGIVDGGWIPQNPVKRKQFLDLPGLEMFTGGDMPMALTEMEPDLFHLLPRAIKGSAGLVFNSFEEFEKKPLSDLRDQLKLNAMPGKGPPTVFTIGPLLLLPGIPGALDDTKPVEKSESIAWLDKQQKSSVLFICFGSQRELPEPLITGIASGLEDTGVPFLWALRIPPQSSKIESLPEGFESRTQSRGLVLTSWVPQQEILLHPSVGGFLTHCGWNSILESMLGGVPIAAFPLYAEQRMNQRYMVNAVKTAVAIEGEHGQYEAKEIAAAIMRLLKGKEGVEARQNMQIMKEMAYAAMEEGGSSHKNLQNFLAEVQRVR
notes: full-length ORF (1392 bp, 463 residues) in pET32a(+), N-terminal Trx-S-His tag, E. coli BL21(DE3), purified
Consider B2, for which, in data set [4], the Km was determined as 89.2 ± 17.6 µM, the Vmax stood at 0.15 µmol/min/mg, the kcat stood at 0.124 ± 0.012 s⁻¹ and the kcat/Km is 1500 M⁻¹ s⁻¹.

For the origin of these results see publication PMC9025568, “Identification and Characterization of Two Bibenzyl Glycosyltransferases from the Liverwort Marchantia polymorpha” (Antioxidants, 2022).
